{"source": "the DeepSol protein solubility set", "data": [{"assay": "soluble on expression in E. coli; label from the status in PepcDB or PDB records", "values": [{"sequence": "DTLANAVYLRLMTPLGGWWADPTLGSRLHELSRSKDSNRIDLLACQYAEQALQPLLQDGRASRVQVSSQRQGPGRLLLNIEVAETGGHIRHFQHQVRI", "soluble on expression in E. coli": "not soluble"}, {"sequence": "DTTYGCPGEWRCLKAAALGEGKFDEPVRVIGFVRCECPGNTLVPNIGMTMKLSEVKPDAIYFSSCMLRDPGCPYRSAEEWAKIVENAFQIPVKLGTH", "soluble on expression in E. coli": "not soluble"}, {"sequence": "DVQINIRNNVYIPPCTINNGQNIVVDFGNINPEHVDNSRGEVTKTISISCPYKSGSLWIKVTGNTMGGGQNNVLATNITHFGIALYQGKGMSTPLTLGNGSGNGYRVTAGLDTARSTFTFTSVPFRNGSGILNGGDFRTTASMSMIYN", "soluble on expression in E. coli": "soluble"}, {"sequence": "DVQLQESGPGLVKPSQSLSLTCTVTGYSITSLYAWNWIRQFPGNKLEWMGYINYSGYTSYNPSLKSRISITRDTSKNQFFLQLHSVTTEDTATYSCTRGVDYFAMDYWGQGASVTVSSAKTTAPSVYPLAPVCGDTTGSSVTLGCLVKGYFPEPVTLTWNSGSLSSGVHTFPALLQSDLYTLSSSVTVTSNTWPSQSITCNVAHPASSTKVDKKIVPRD", "soluble on expression in E. coli": "soluble"}, {"sequence": "DWEVETGERYLPKLPECKIDNSKYQHPIQVVPSGPGMPEYLIYQVLTLAINQANRSVRITTPYFVPNTDLLETLKMTAQRGIDVELIIPHKNDSLMVQWASRAFYSELLAAGVKIYEFYGGLLHTKSVVIDDQFCLVGTVNMDMRSLWLNFEVTLAVDDEEFTKQLSWLQDGYIKQSHPVVLDEWEKRSLYSRFLERVFYLFNPLL", "soluble on expression in E. coli": "not soluble"}, {"sequence": "DYIVEKLNMTKMYDIFSQYLPPQVFINDDSVVHLVRNSIYYKKMRGKHDLVILAGDFQGTTQEAQYELSYQVLQIAKEIGVSMIYTLGGYSIGKIVDKPRVLGAVTDKNLVADLEKNGVVFPKGE", "soluble on expression in E. coli": "not soluble"}, {"sequence": "DYSQKLQNLISEQLVGCGFNEILNNSLTAASYYEGSETYKNENLVYLMNPLSNDLNVMRQTLLFGGLESIQHNANRKNADLKFFEFGNCYFYNAEKKNPEKVLAAYAEEYHLGLWVTGKRVSNSWAHPDENSSVYELKAYVLNIFTRLGLNFGNVVFGNLTNDIYSTAISVHTRGGKLLATFGIISKKIQKAFDIDNEVYYAEINWKELM", "soluble on expression in E. coli": "not soluble"}, {"sequence": "EDATPETVEYRQLSAADLLADTHLLREVFGLLVLAHYRTEPSDLARLLDAPNLTVRALTHEGHVVAVALLAQEGGLSASTRATMYEGGRVRGNMLPDVLSTQLRDEAAGVPVGQRVLRIATHAAVRSRGLGSKLLSEIRAEFADHVDWVGVSYGATPELVRFWADNGYNTVHLATSRNATSGEYSVVMLDP", "soluble on expression in E. coli": "not soluble"}, {"sequence": "EDMKGKIRVYCRLRPLCEKEIIAKERNAIRSVDEFTVEHLWKDDKAKQHMYDRVFDGNATQDDVFEDTKYLVQSAVDGYNVCIFAYGQTGSGKTFTIYGADSNPGLTPRAMSELFRIMKKDSNKFSFSLKAYMVELYQDTLVDLLLPKQAKRLKLDIKKDSKGMVSVENVTVVSISTYEELKTIIQRGSEQRHTTGTLMNEQSSRSHLIVSVIIESTNLQTQAIARGKLSFVDLAGSERVKKSGSAGNQLKEAQSINKSLSALGDVISALSSGNQHIPYRNHKLTMLMSDSLGGNAKTLMFVNISPAESNLDETHNSLTYASRVRSIVNDPSKNVSSKEVARLKKLVSYWKEQAGRKGDDEELEEIQDE", "soluble on expression in E. coli": "soluble"}, {"sequence": "EDRVGERRIMIDKKEAIEHFRRHPGDGMIKLDLLTTAYNDINLIPPIYQPFLQDKQYFLGEVGQEPNTRMIYMSTFNQNGEEHPIILISLIDEIEITSTE", "soluble on expression in E. coli": "not soluble"}, {"sequence": "EGLDYLTAPNPPSIREELCTASHDTITVHWISDDEFSISSYELQYTIFTGQANFISLYNSVDSWMIVPNIKQNHYTVHGLQSGTRYIFIVKAINQAGSRNSEPTRLKTNSQPFK", "soluble on expression in E. coli": "soluble"}, {"sequence": "EKMTRDEIEYMLTNSEETLDADEIEMLQGVFSLDELMAREVMVPRTDAFMVDINDDSSDIIQTILNERFSRIPVYDDDKDKIIGIIHTKNLLNAGFKEGFDHINLRRILQEPLFVPETIVVNDLLTALKNTQNQMAILLDEYGGVAGLVTLEDLLEEIVGEIDDETDKTAISVREIADNTYIVLGTM", "soluble on expression in E. coli": "not soluble"}]}]}
